Source: patent publication US20250333498A1 (BIO THERA SOLUTIONS, published 2025)

Key:
human CLDN18.2 [1] = molecular target: T1, human CLDN18.2 (human); experiment: flow cytometry on KATOIII cells (CLDN18.2 positive), PE anti-human IgG-Fc secondary antibody
T1 construct: The cell line is named under assay; also called claudin-18 isoform 2
Protocol: (§1) Flow cytometry was used to detect the binding capacity of anti-CLDN18.2 antibodies and ADCs to cells expressing CLDN18.2, and the specificity of not binding to CLDN18.1 of the antibody was further detected. […] The mixture was incubated at 4° C. for 1 h and washed twice with PBS.

human CLDN18.2 [2] = molecular target: T1, human CLDN18.2; experiment: flow cytometry on KATOIII cells (item 2)
human CLDN18.2 [3] = molecular target: T1, human CLDN18.2; experiment: cell-based or functional assay
human CLDN18.2 [4] = molecular target: T1, human CLDN18.2; experiment: flow cytometry on CHO-CLDN18.2 cells
human CLDN18.2 [5] = molecular target: T1, human CLDN18.2; experiment: flow cytometry on KATOIII cells (item 2); KATOIII cells; item 2, compared with IMAB362
Protocol: as §1

human CLDN18.2 [6] = molecular target: T1, human CLDN18.2; experiment: flow cytometry on KATOIII cells (item 3); KATOIII cells; item 3, compared with the humanized antibodies
Protocol: as §1

human CLDN18.2 [7] = molecular target: T1, human CLDN18.2; experiment: flow cytometry on CHO-CLDN18.2 cells; CHO-CLDN18.2 cells
Protocol: as §1

human CLDN18.2 [8] = molecular target: T1, human CLDN18.2; experiment: flow cytometry on KATOIII cells (item 3); KATOIII cells
Protocol: as §1

human CLDN18.1 = human CLDN18.1 (human, UniProt P56856 1-261); experiment: flow cytometry on CHO-CLDN18.1 cells, PE anti-human IgG-Fc secondary antibody
Chain of human CLDN18.1 (P56856 whole entry): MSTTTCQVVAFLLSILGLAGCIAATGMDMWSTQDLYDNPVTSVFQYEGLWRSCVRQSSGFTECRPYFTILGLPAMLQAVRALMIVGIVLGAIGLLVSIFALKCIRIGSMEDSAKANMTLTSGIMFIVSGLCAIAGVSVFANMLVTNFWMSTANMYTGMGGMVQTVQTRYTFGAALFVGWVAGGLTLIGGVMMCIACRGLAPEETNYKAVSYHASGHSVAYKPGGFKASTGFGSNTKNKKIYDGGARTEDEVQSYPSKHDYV
Protocol: as §1

Binder	EC50 (read off the curve) (human CLDN18.2 [1]) [nM]	ADCC Reporter Bioassay EC50 (luciferase, Jurkat-NFAT-luc-FcγRIIIa effector cells) (human CLDN18.2 [3]) [nM]	EC50 (human CLDN18.2 [7]) [nM]	EC50 (human CLDN18.2 [8]) [nM]	binding result (human CLDN18.1)	CDC IC50 (cell killing rate of CHO-CLDN18.2 cells with 5% human serum complement, CCK-8) (human CLDN18.2 [3]) [nM]	other results
chimeric antibody CH101H1-K-1 (antibody, human IgG1, kappa, V domains shown, Chimeric antibody (murine variable region + human constant region)) VH: EVQLQESGPELVKPGASVKISCKASGYSFTSYYIHWVKQRPGQGLEWIGWIYPGSGNTKYNEKFKGKATLTADTSSSTAYMQLSSLTSEDSAVYYCARGMDYGNYYLDYWGQGTTLTVSS VL: DIVMTQSHKFMSTSVGDRVSITCKASQDVGTAVAWYQQKPGQSPKLLIYWASTRHTGVPDRFTGSGSGTDFTLTISNVQSEDLADYFCQQYSSYLTFGAGTKLELKR	~10						
chimeric Antibody CH239H-2-K-6 (antibody, human IgG1, kappa, V domains shown, Chimeric antibody (murine variable region + human constant region)) VH: EVKLQESGGGLVKPGGSLKVSCAASGFTFSDYGMHWVRQAPEKGLEWVAYISRGRSTTYSTDTVKGRFTISRDSAKHTLFLQMTSLRSEDTAMYYCARGSYYGNAMDYWGQGTSVTVSS VL: DIVMTQSPSSLTVTAGERVTMSCKSSQSLLNSGNQRNYLTWYQQKPGQPPKLLIYWASTRESGVPDRFTGSGSGTDFTLTISSVQAEDLAVYFCQSAYSYPFTFGSGTKLEIKR	~20		19.9				EC50 (human CLDN18.2 [5]): 6.29 nM; EC50 (human CLDN18.2 [6]): 6.11 nM

Further lines, with some results ahead:

EC50 (read off the curve) (human CLDN18.2 [1]) [nM]	ADCC Reporter Bioassay EC50 (luciferase, Jurkat-NFAT-luc-FcγRIIIa effector cells) (human CLDN18.2 [3]) [nM]	EC50 (human CLDN18.2 [7]) [nM]	EC50 (human CLDN18.2 [8]) [nM]	binding result (human CLDN18.1)	Binder	CDC IC50 (cell killing rate of CHO-CLDN18.2 cells with 5% human serum complement, CCK-8) (human CLDN18.2 [3]) [nM]	other results
	0.795				positive Antibody IMAB362 (antibody, V domains shown) VH: QVQLQQPGAELVRPGASVKLSCKASGYTFTSYWINWVKQRPGQGLEWIGNIYPSDSYTNYNQKFKDKATLTVDKSSSTAYMQLSSPTSEDSAVYYCTRSWRGNSFDYWGQGTTLTVSS VL: DIVMTQSPSSLTVTAGEKVTMSCKSSQSLLNSGNQKNYLTWYQQKPGQPPKLLIYWASTRESGVPDRFTGSGSGTDFTLTISSVQAEDLAVYYCQNDYSYPFTFGSGTKLEIKR	5.87	EC50 (human CLDN18.2 [2]): 8.08 nM; EC50 (human CLDN18.2 [4]): 30 nM
		22.8	6.2	no binding (tested: about 330 nM)	humanized Antibody H239H-2a-K-6a (antibody, human IgG1, kappa, V domains shown, Humanized antibody (humanized variable region + human constant region)) VH: EVQLLESGGGLVQPGGSLRLSCAASGFTFSDYGMHWVRQAPGKGLEWVAYISRGRSTTYSTDTVKGRFTISRDSSKNTLYLQMNSLRAEDTAVYYCARGSYYGNAMDYWGQGTLVTVSS VL: DIVMTQSPDSLAVSLGERATINCKSSQSLLNSGNQRNYLTWYQQKPGQPPKLLIYWASTRESGVPDRFSGSGSGTDFTLTISSLQAEDVAVYYCQSAYSYPFTFGGGTKLEIKR		
	0.0625	23.3	6.92	no binding (tested: about 330 nM)	humanized Antibody H239H-2b-K-6a (antibody, human IgG1, kappa, V domains shown, Humanized antibody (humanized variable region + human constant region)) VH: EVQLLESGGGLVQPGGSLRLSCAASGFTFSDYGMHWVRQAPGKGLEWVAYISRGRSTTYSTDTVKGRFTISRDNSKNTLYLQMNSLRAEDTAVYYCARGSYYGNAMDYWGQGTLVTVSS VL: DIVMTQSPDSLAVSLGERATINCKSSQSLLNSGNQRNYLTWYQQKPGQPPKLLIYWASTRESGVPDRFSGSGSGTDFTLTISSLQAEDVAVYYCQSAYSYPFTFGGGTKLEIKR	0.291	
~20					chimeric antibody CH394H2-K-1 (antibody, human IgG1, kappa, V domains shown, Chimeric antibody (murine variable region + human constant region)) VH: EVKLQESGAELMKPGASVKLSCKATGYTFTGYWIEWVKQRPGHGLEWIGEILPGSGSTNYNEKFKGKATFTADTSSNTAYMQLSSLTTEDSAIYYCARAPLEGLRSGFAYWGQGTLVTVSA VL: DIVLTQSPASLAVSLGQRATISCRASESVDSYGNSFMHWYQQKPGQPPKLLIYRASNLESGIPARFSGSGSRTDFTLTINPVEADDVATYYCQQSNEDPRTFGGGTKLEIKR		
